From patent US20230263863A1, “COMPOSITIONS HAVING NEUROREGENERATIVE APPLICATIONS” (GRIFOLS WORLDWIDE OPERATIONS LIMITED, priority 2020, published 2023)

System: SH-SY5Y cells
Test: Neurite outgrowth (Outgrowth Fold Change) in undifferentiated SH-SY5Y cells
Assay type: cell-based, human
Settings: for neurogenesis / differentiation (neurite outgrowth): all proteins 0.2 mg/mL
Protocol: Undifferentiated SH-SY5Y cells were seeded into 96 well clear bottom plates in media containing 0.1% FBS. A serum-free base media was utilized as recommended by the supplier for SH-SY5Y cells (Sigma, Cat #94030304-1VL). Twenty-four hours after seeding cells, a 3× stock solution of ApoTf, final concentrations indicated on the x-axis, in serum free base media was added to the cells. ApoTf was obtained and purified from pooled human plasma and dosed at a final concentration of 0.2 mg/mL. Cells were allowed to differentiate for 6 days. Neurite growth was assessed by imaging and image analysis. At the time of analysis, a 10× solution of Tubulin Tracker (Molecular Probes, T34075) and Hoechst 33342 (Molecular Probes #H3570) nuclear stain was prepared.
Briefly, Tubulin Tracker dissolved in DMSO was diluted 1:1 with Pluronic F-127 and further diluted into HBSS to generate a 10× solution. Hoechst 33342 was added to the HBSS-Tubulin Tracker solution at 10 μg/mL to generate a 10× nuclear stain. The 10× staining solution (10 μL) was added directly to treated assay wells and incubated at 37° C. for 30 minutes. Following incubation, 110 μL of 0.4% Trypan Blue was added directly to assay wells and imaged on a Molecular Devices Nano imaging instrument. Nine images/well were acquired in the blue (Nuclei) and green (Tubulin) fluorescent channels for each image.
After obtaining images, the MetaExpress Neurite Outgrowth analysis module (Molecular Devices) was used to identify cells, cell bodies, and quantify neurites. The total number of neurite branches were divided by the total number of cells imaged to account for different numbers of cells in each test well. The Outgrowth Fold Change was determined by setting the untreated control cells to a value of 1 with all other treatments shown relative to untreated control.

B1: N-mut rec ApoTf: Y95F/Y188F transferrin N-lobe mutant protein, SEQ ID NO: 4, reduced iron-binding capacity (protein)
chain: VPDKTVRWCAVSEHEATKCQSFRDHMKSVIPSDGPSVACVKKASYLDCIRAIAANEADAVTLDAGLVYDAYLAPNNLKPVVAEFYGSKEDPQTFFYAVAVVKKDSGFQMNQLRGKKSCHTGLGRSAGWNIPIGLLYCDLPEPRKPLEKAVANFFSGSCAPCADGTDFPQLCQLCPGCGCSTLNQYFGFSGAFKCLKDGAGDVAFVKHSTIFENLANKADRDQYELLCLDNTRKPVDEYKDCHLAQVPSHTVVARSMGGKEDLIWELLNQAQEHFGKDKSKEFQLFSSPHGKDLLFKDSAHGFLKVPPRMDAKMYLGYEYVTAIRNLREGTCPEAPTDECKPVKWCALSHHERLKCDEWSVNSVGKIECVSAETTEDCIAKIMNGEADAMSLDGGFVYIAGKCGLVPVLAENYNKSDNCEDTPEAGYFAVAVVKKSASDLTWDNLKGKKSCHTAVGRTAGWNIPMGLLYNKINHCRFDEFFSEGCAPGSKKDSSLCKLCMGSGLNLCEPNNKEGYYGYTGAFRCLVEKGDVAFVKHQTVPQNTGGKNPDPWAKNLNEKDYELLCLDGTRKPVEEYANCHLARAPNHAVVTRKDKEACVHKILRQQQHLFGSNVTDCSGNFCLFRSETKDLLFRDDTVCLAKLHDRNTYEKYLGEEYVKAVGNLRKCSTSSLLEACTFRRP
modifications: Y95F/Y188F mutant
neurogenesis / differentiation (neurite outgrowth) (FIG. 3B): almost equal to that of ApoTf and rec ApoTf at inducing differentiation

B2: apo-lactoferrin: structural and functional homologue of apo-transferrin, from Athens Research & Technology (protein, UniProt P02788 20-710, looked up)
Lactotransferrin: GRRRSVQWCAVSQPEATKCFQWQRNMRKVRGPPVSCIKRDSPIQCIQAIAENRADAVTLDGGFIYEAGLAPYKLRPVAAEVYGTERQPRTHYYAVAVVKKGGSFQLNELQGLKSCHTGLRRTAGWNVPIGTLRPFLNWTGPPEPIEAAVARFFSASCVPGADKGQFPNLCRLCAGTGENKCAFSSQEPYFSYSGAFKCLRDGAGDVAFIRESTVFEDLSDEAERDEYELLCPDNTRKPVDKFKDCHLARVPSHAVVARSVNGKEDAIWNLLRQAQEKFGKDKSPKFQLFGSPSGQKDLLFKDSAIGFSRVPPRIDSGLYLGSGYFTAIQNLRKSEEEVAARRARVVWCAVGEQELRKCNQWSGLSEGSVTCSSASTTEDCIALVLKGEADAMSLDGGYVYTAGKCGLVPVLAENYKSQQSSDPDPNCVDRPVEGYLAVAVVRRSDTSLTWNSVKGKKSCHTAVDRTAGWNIPMGLLFNQTGSCKFDEYFSQSCAPGSDPRSNLCALCIGDEQGENKCVPNSNERYYGYTGAFRCLAENAGDVAFVKDVTVLQNTDGNNNEAWAKDLKLADFALLCLDGKRKPVTEARSCHLAMAPNHAVVSRMDKVERLKQVLLHQQAKFGRNGSDCPDKFCLFQSETKNLLFNDNTECLARLHGKTTYEKYLGPQYVAGITNLKKCSTSPLLEACEFLRK
modifications: apo form
notes: structural and functional homologue of apo-transferrin, from Athens Research & Technology
neurogenesis / differentiation (neurite outgrowth) (FIG. 4): induced differentiation

B3: BDNF: brain-derived neurotrophic factor; NGF superfamily; SEQ ID NO: 6 (protein, listed as Homo sapiens)
chain: MFHQVRRVMTILFLTMVISYFGCMKAAPMKEANIRGQGGLAYPGVRTHGTLESVNGPKAGSRGLTSLADTFEHVIEELLDEDQKVRPNEENNKDADLYTSRVMLSSQVPLEPPLLFLLEEYKNYLDAANMSMRVRRHSDPARRGELSVCDSISEWVTAADKKTAVDMSGGTVTVLEKVPVSKGQLKQYFYETKCNPMGYTKEGCRGIDKRHWNSQCRTTQSYVRALTMDSKKRIGWRFIRIDTSCVCTLTIKRGR
differentiation (neurite outgrowth), factor alone (FIGS. 7A-7D, absence of ApoTf, BDNF 25 ng/mL, GDNF 1000 ng/mL, CNTF 250 ng/mL, PACAP 200 nM): differentiation was not induced
